In publication PMC7150476:

Biological target: STAT3 (UniProt P40763)
Assay: co-immunoprecipitation, Flag/Myc tags, Western blot
Conditions: reference: wild-type PLSCR1-2Flag; sites Y69,Y74

PLSCR1 (from UniProt O15162) PLSCR1-Y69,74F-2Flag
binding against the reference: weaker
